# Measured values as given in PMC3072145.
# Tests used:
# Hfq-NA = Hfq-NA (Escherichia coli, UniProt P0A6X3 1-102); test: analytical ultracentrifugation
# Hfq wt = Hfq wt (Escherichia coli, UniProt P0A6X3 1-102); test: analytical ultracentrifugation
binder,measurement,setting,value
AAAAAAAAAAAAAAAAAA (ssRNA) [FAM-rA18],binding result,Hfq-NA,binds
same,binding result,Hfq wt,binds
